Results reported in article PMC8175417, “Streptococcus pneumoniae pneumolysin and neuraminidase A convert high-density lipoproteins into pro-atherogenic particles” (iScience, 2021).

Target: the molecule itself
Experiment: non-reducing SDS-PAGE with Western blot; hirudin blood incubated with 200 nM PLY for 1 h at 37 °C; total HDL isolated from the plasma by flotation ultracentrifugation; samples and 50 ng PLY control run under non-reducing conditions; detected with anti-penta-His antibody

B1: Recombinant Streptococcus pneumoniae serotype 2 Pneumolysin (PLY) (natural protein, UniProt Q04IN8 1-471, looked up)
chain: MANKAVNDFILAMNYDKKKLLTHQGESIENRFIKEGNQLPDEFVVIERKKRSLSTNTSDISVTATNDSRLYPGALLVVDETLLENNPTLLAVDRAPMTYSIDLPGLASSDSFLQVEDPSNSSVRGAVNDLLAKWHQDYGQVNNVPARMQYEKITAHSMEQLKVKFGSDFEKTGNSLDIDFNSVHSGEKQIQIVNFKQIYYTVSVDAVKNPGDVFQDTVTVEDLKQRGISAERPLVYISSVAYGRQVYLKLETTSKSDEVEAAFEALIKGVKVAPQTEWKQILDNTEVKAVILGGDPSSGARVVTGKVDMVEDLIQEGSRFTADHPGLPISYTTSFLRDNVVATFQNSTDYVETKVTAYRNGDLLLDHSGAYVAQYYITWDELSYDHQGKEVLTPKAWDRNGQDLTAHFTTSIPLKGNVRNLSVKIRECTGLAWEWWRTVYEKTDLPLVRKRTISIWGTTLYPQVEDKVEND
notes: Pneumolysin (PLY), Streptococcus pneumoniae serotype 2; recombinant protein bought from Cusabio; Detected with a penta-His antibody
binding result: binds
